Assay results reported in the nanobody polyreactivity screen of Harvey et al. (2022).

Test: yeast display, Sf9 membrane polyspecificity reagent, FACS + sequencing; frameworks hold sequencing errors
Procedure, shortened: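 Polyreactivity labels are assigned by the sorting gate from which each nanobody was recovered. The gates were low and high (top ~1%), set on anti-HA fluorescence for expression and streptavidin fluorescence for reagent binding. Before sorting, galactose-induced (36–48 hours) yeast display cells were stained for 1 hour at 4 °C with 10% biotinylated, detergent-solubilized Sf9 membrane reagent.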

Sequence	polyreactivity (PSR sort gate)
QVQLVESGGGLVQAGGSLRLSCAASGRIFWAYTMGWYRQAPGKERELVAAITGSGGSTYYADSVKGRFTISRDNAKNTVYLQMNSLKPEDTAVYYCAADIGYIRLPRGREYDYWGQGTEVTVSS	high polyreactivity
QVQLVESGGGLVQAGGSLRLSCAASGRTFVYYTRGWYRPAPGKERELVAAISWNGDDTYYADSVKGRFTISRDNAKNTVYLQMNSLKPEDTAVYYCAKESYTDYDTYYYWGQGTQVTVSS	low polyreactivity
QVQLVESGGGLVQAGGSLRLSCAASGFTFVVYTMGWYRQAPGKEREFVAVISESGGSTYYADSVKGRFTISRDNAKNTVYLQMNSLKPEDTAVYYCAARTRYYRDNYWGQVTQVTVSS	high polyreactivity
QVQLVESGGGLVQAGGSLRLSCAASGRIFSFYAMGWKRQAPGKERELVAAITWGDGSTYYADSVKGRFTISRDNAKNTVYLQMNSLKPEDTAVYYCNKTYIDTTVYDVIMDYWGQGTQVTVSS	low polyreactivity
QVQLVESGGGLVQAGGSLRLSCAASGRIFYVYAMGWYRPAPGKERELVAAITQSGGRTYYADSVKGRFTISRDNAKNTVYLQMNSLKPEDTAVYYCNADGDDLDWNYYLVQYDYWGQGTQVTVSS	low polyreactivity
QVQLVESGGGLFQAGGSLRLSCAASGSIFGHYAMGWYRQAPGKERELVAAISYSGGSTYYADSVKGRFTISRDNAKNTVYLHMNSLKPEDTAVYYCNADLYDAGSEMDYWGQGTQVTVSS	high polyreactivity
QVQLVESGGGLVQAGGSLRLSCAASGSTFARYAMGWYRQAPGKERELVAAITWGGGGTYADSVKGRFTISRDNAKNTVSLQMNSLKPEDTAVYYCNAYGPLILFIGFRLDYWGQGTQVTVSS	low polyreactivity
QVQLVESGGGLVQAGGSLRLSCAASGGTFTIYAMGWYRQAPGKERELVATINRGDRTNYADSVKGRFTISRDNAKNTVYLQMNSLKPEDTAVYYCAADFYYWYRGVYFVTRNYYWGQGTQVTVSS	high polyreactivity
QVQLEESGGGLVQAGGSLRLSCAASGIIFRLYGMGWYRQAPGKEREFVATITWRGGRTNYADSVKGRFTISRDNAKNTVYLQMNSLTPEDTAVYYCANVVRYARSNEYDSSGQGTQVTVSS	low polyreactivity
QVQLVESGGGLVQAGGSLRLTCGASGFTFDSYAMGWSRQEPGKERELVAAISTIGGRTYYADSVKGRFTISRDNAKNTVYLQMNSLKPEDTAVYYCAAEQGTPSTNWYDYWGQGTQVTVSS	low polyreactivity
QVQLVESGGGLVQAGGSLRLSCAASGLISYAYAMGWYRQAPGKERELVAAIRSSGSTYYADSVKGRFTISRDNAKNTVYLQMNSLKPEDTAVYYCAAYVWRRGDGYYYWGQGTQVTVSS	high polyreactivity
QVQLVESGGGLVQAGGSLRLSCAASGSTFQVYAMGWYRQAPGKERELVAAISYRDGNTYYADSVKGRFTISRDNAKNTFYLQMNSLKPEDTAVYYCNAGLYLPSGYRRSNGYESDYWGQGTQVTVSS	high polyreactivity
QVQVVESGGGLVQAGGSLRLSCAASGSIFGRYAMGWYRQAPGKERELVAGITRGGSPYYADSVKGRFTISRDNAKNTVYLQMNSLKPEDTAVYYCNRAARYGEYDYWGQGTQVTVSS	high polyreactivity
QVQLVESGGGLVQAGGSLRLSCAASGRIFRVYAMGWYRQEPGKERELVAGISFRGASTYYADSVKGRFTISRDNAKNTVYLQMNSLKPEDTAVYYCAAALPVQYRDMYSWGQGTQVTVSS	high polyreactivity
QVQLVESGGGLVQAGGSLRLSCAASGSIFTSYAMGWYRQAPGKERELVAAISRSGARTYYADSVKGRFTISRDNAKNTVYLLMNCLKPEDTAVYYCAAVHWRTTGGYDYWGQGTQVTVSS	high polyreactivity
QVQLVESGGGLDQAGGSLRLSCAASGTTFRNNAMGWYRQAPGKERELVAVITGDGGSTYYADSVKGRFTISRDNAKNTVYLEMNSLKPEDTAVYYCNARSIRYSRFRQRFGYWGQGTQVTVSS	low polyreactivity
QVQLVESGGGLVQAGGSLRLSCAASGSIFYPYAMGWYRQAPGKEREFVAAITRSGGSTSYADSVKGRFTISRDNAKNTVYLHMNSLKPEDTAVYYCAAGYWYPDYDGFDYWGQGTQVTVSS	low polyreactivity
QVQLVESGGGLVQAGGSLRLTCASSGITFGSYAMGWYTQAPGKERELVAAITWRGGSTFYADSVKGRFTISRDNAKITVYLQMNSLKPEDTAVYYCAATLTKYLPRYYWGHGTQVTVSS	low polyreactivity
QVQLVESGGGLVQAGGSLRLSCAASGSTFKFYTMGWYRQAPGKERELVATIDWSGGSTYYADSVKGRFTISRDNAKNTVYLQMNSLKPEDTSVYYCAAYSRSRTTRLGKYYYWGQGTQVTVSS	high polyreactivity
QVQLVESGGGLVQAGGSLRLSGAASGRTFKHYVMGWYRQAPGKARELVAAYRSGGRTNYADSVKGRFTISRDNAKNTVYLQMNRVKPADTAVYYCAARYFSQYQGAGYDSWGQGTQVTVSS	high polyreactivity
QVQLVESGGGLVQAGGSLRLSCDASGRIFFNTMGWYRQAPGKERELVAAISSGGSTSYADSVKGRFTISRDNAKNTVYLQMNSLKPEDTAVYYCADLKLYIYDYWGQGTQVTVSS	high polyreactivity
QVQIVESGGGLVQAGGSLRVSCAASGSIFKIYAMGWYRQAPGKERELVASITGSGGSTYYADSVKGRFTISRDNAKNTVYLQMNSLKPEDTAVYYCAAAVLGSSTSEVDPDRPEYYYWGHGTQVTVSS	low polyreactivity

Sequence	polyreactivity (PSR sort gate)
QVQLVESGGGLVQAGGSLRLSSAASGSTFTSYAMGWYRQAPGNEWELVAAINSGGGTNYADSVKGRFTISRDNAKNTVYLQMNSLKPEDTAVYYCAKSRYDYTKTEGGYWGQGTQGTVSS	low polyreactivity
QVQLVESGGGLVQAGGSLRLSCAASGIIFPYYTMGWYRQAPGKERELVAAISTSGGSTYYADSVKGRFTISRDNAKNTVYLQMNSLKPEDTAVYFCAAELSYDYSHDYWGQGTQVTVSS	high polyreactivity
QVQLVESGGGLVQAGGSLRLSCAASGIIFYTYAMGWYRQAPGKEREFVAGIRWSGSSTYYADSVKGRFTISRDNAKNTVYLQMNCLNPEDTAVYYCATGQPYGPLFSMGYGYWGQVTQVTVSS	high polyreactivity
QVQLVESGGGLVQAGGSLRLSSSASGRISGRNAMGWYRQAPGKERELVAVITRGDTNYADSVKGRFTISRDNAKNTVYLQMNSLKPEDTAVYYCAKEPLASGWGYDYWGQGTQVTVSS	high polyreactivity
QVQLVESGGGLVQAGGSLRLICAASGLTFRYYAMGWYRQAPGKERELVAAITRGGSTYYADSVKGRFTISRDNAKNTVYLQMNSLKPEDTAVYYCAAYDVRYNTYDYDYWGQGTQVTVSS	high polyreactivity
QVQLVESGGGLVQAGGSLRLSCAASGSIFRPYAMGWYRQAPGKERELVAAISVRGGRSYYADSVKGRFTISRDNAKNTVYLQMNSLKPEDTAVYYCNTVRQLGYTGYDYWGQGTQVTVSS	high polyreactivity
QVQLVESGGGLVQAGGSLRLSCAASGRTFYSNAMGWYRQAPGKERELVAAITSTDDSTYYADSVKGRFTISRDNAKNTVYLQMNSLKPEDNAVYYCNRDGLIAIRGLWWVEYDYWGQGTQVTVSS	low polyreactivity
QDQLVESGGGLVQAGGSLRLSCAASGFTFSVNAMGWYRQAPGKERELVAAITRGRSTSYADSVKGRFTISRDNAKNTVYLQKNSLKPEDTAVYYCAASYSGGTWSGYYYWGQGTQVTVSS	high polyreactivity
QVHLVESGGGLVQAGGSLSLSCAASGFTYTSYAMGWYRQAPGTEREFVAAIRRSGSGTYYADSVKGRFTISRVNAKNTVYLQMNSLNPEDTAVYYCAVVPPRLYYHYDYWGQGTQVTVSS	high polyreactivity
QVQLVESGGGLVQAGGSLRLSCAASGRIFYHYAMGWYRQPPGKESELVAAITWSGDSTYYADSVKGRFTISRDNAQNTVYLQMNSLKPEDTAVSYCATSSPYGVRRYSRGSWGQGTQVTVSS	high polyreactivity
QVQLVESGGGLVQAGGSLRLICAASGSIFISYAMGWYRQAPGKERELVAAISSGGSTNYADSVKGRFTISRDNAKNTVYLQMNSLKPEDTAVYYCAADGWLWSFTGDGWWFDYWGQGTQVTVSS	low polyreactivity
QVQLVETGGGLVQAGGSLRLSCAASRSTIADNAMGWYRQAPGKERELVAAITRSGVRTYYADSVKGRFTISRDNAKNTVYLQMNSLKPEDTAVYYCAKRTYPSRIYDYWGQGTQVTVSS	low polyreactivity
QVQLVESGGGLVQAGGILRLSCAASGSIFWYYARGWYRQARGKEREFVADITFSGGSTYYADSVNGRFTISRDNAKNTVYIQMNSLKPEDTAVYYCARDREPLTPVLGNYWGQGTQVTVSS	low polyreactivity
QVQLVESGGGLVQAGGSLRLICAASGLTFADYAMGWYRPAPGKERELVAAISRRGGSTYYADSVKGRFTISRDNAKNTVYLQMNSLKPEDTAVYYCAAYAYDVAFKRYKFDYWGQGTEVTVSS	high polyreactivity
QVQLVESGGGLDQAGGSLRLSCAASGRIFGYYVMGWYRQAPGKEREFVAAISRSGGSTYYADSVKGRFTISRDNAKTTVYLQMNSLKPEDTAVYYCAKRVSTYGFSGYDYWGQGTQVTVSS	high polyreactivity
QVQLVESGGGLVQAGGSHRLSCAASGSTFRVYAMGWYRQAPGKERELVATISWGGGRTYYADSVKGRFTISRDNAKNTVYLQMNSLKPEDTAVYYCAADQRWTTDQPTAGDYWGQGTQVTVSS	low polyreactivity
QVQLVESGGGLVQAGGSLRLSCAASGSNFTYYALGWYRQAPGKERELVAAISKTGGRTYYADSVKGRFTISRDNAKNTVYLQMNSLKPEDTAVYYWAAEAPWQWYGWLRGYDFCGQGTQVTVSS	high polyreactivity
QVQLVESGGGKVQAGGSLRLSCAASGFILSRNAMGWYRQAPGKERELVAAISRSGTRTYYADSVKGRFTISRDNEQNTVYLQMNSLKPEDTAVYYCARVSKRTWTGYYYWGQGTQVTVSS	high polyreactivity
QVQLEESGGGLVQAGGSLRLSCAASGLIFGKYAMGWYRTAPGKERELVAAITSSGGGTYYADSVKGRFTISRDNAKNTVYLQMNSLKPEDTAVYYCSTGPDPKYDYWGQGTQVTVSS	high polyreactivity
QVHLVESGGGLVQAAGSLRLSCAASGSTFKYNAMGWYRQAPGKERELVAAITRGGRTYYADSVKGRFTISRDNAKNTVYLQMNSLKPEDTEVYYCAAAIPSGTFYAGAYYYWGQGTQVTVSS	high polyreactivity
QVQLVESGGGLVQAGGSLRLSCAASGIIFPGNAMGWNSQAPGKVRELVAAITSSDGSTYYADSVKGRFTISRDNAKNTVYVQMNSLKPEDTALYYCAADFKGLFSSELDYWGQGTQVTVSS	low polyreactivity
